To fix the notation:
B1: ACSBG2 (parent)
chain: TPMTIPEFFRESVNRFGTYPALAS
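Further: lentivirally expressed fusions sorted by FACS into six bins by GFP to DsRed ratio, PSI derived from sequencing read proportions per bin multiplied by bin number.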

In the data set the parent is B1. Put plainly: protein stability index of a GFP-peptide fusion (GPS, HEK-293T) (PSI 1-6); higher = more stable. The note with it: c terminus: a fixed tail appended.
As to TPMTIPEFFRESVNRFGTYPALAT, the protein stability index worked out at 2.07.
As to TPMTIPEFFRESVNRFGTYPALAV, the protein stability index amounted to 1.37.
With TPMTIPEFFRESVNRFGTYPALAW the figure was 1.66; with TPMTIPEFFRESVNRFGTYPALAR, 2.96; with TPMTIPEFFRESVNRFGTYPALAP, 2.52.
For the variant TPMTIPEFFRESVNRFGTYPALAQ, the protein stability index was 2.08.
Regarding TPMTIPEFFRESVNRFGTYPALAY, the protein stability index was found to be 1.76.
